From US20110070246A1 (F HOFFMANN LAROCHE, published 2011) come the findings set out here.

Assay [1] has as its target T1, Soluble extracellular domain (ECD) of human CDCP1 (human, UniProt Q9H5V8 30-663).
T1 construct: also called CDCP1-ECD; hCDCP1-ECD
T1 sequence: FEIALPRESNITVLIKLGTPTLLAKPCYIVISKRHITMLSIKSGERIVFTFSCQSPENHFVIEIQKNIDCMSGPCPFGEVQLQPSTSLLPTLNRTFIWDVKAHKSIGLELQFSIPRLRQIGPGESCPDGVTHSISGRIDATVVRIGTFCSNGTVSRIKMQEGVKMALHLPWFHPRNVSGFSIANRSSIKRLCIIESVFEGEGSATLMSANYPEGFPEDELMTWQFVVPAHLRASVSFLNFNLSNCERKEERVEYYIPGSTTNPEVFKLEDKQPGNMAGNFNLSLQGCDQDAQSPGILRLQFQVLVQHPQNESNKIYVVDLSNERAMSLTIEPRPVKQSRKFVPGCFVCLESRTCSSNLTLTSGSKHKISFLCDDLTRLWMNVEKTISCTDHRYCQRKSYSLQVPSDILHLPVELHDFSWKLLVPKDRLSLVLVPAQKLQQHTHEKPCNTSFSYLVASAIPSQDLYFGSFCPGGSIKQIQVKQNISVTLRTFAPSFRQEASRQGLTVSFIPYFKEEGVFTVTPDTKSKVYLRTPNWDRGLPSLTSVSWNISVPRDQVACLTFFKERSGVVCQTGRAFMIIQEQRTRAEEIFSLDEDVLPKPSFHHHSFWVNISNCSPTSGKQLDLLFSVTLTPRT
Put plainly: Biacore SPR, immobilized hCDCP1-ECD.

In assay [2] the target is Short1 (huCDCP1_SH1_ECD aa1-216)_SBP (human) (UniProt Q9H5V8). Kind of assay: ELISA, SBP-CDCP1-Short1 captured on a streptavidin plate, antibody 0.1 ug in 50 ul, goat anti-mouse IgG-HRP, absorbance 370 nm/492 nm; the same antibody on Medium coating: 0,2330.
The target of assay [3] is Short5 (hu CDCP1_SH5_ECD (aa 1-361)_SBP) (human) (UniProt Q9H5V8). Put plainly: ELISA, SBP-CDCP1-Short5 captured on a streptavidin plate, antibody 0.1 ug in 50 ul, goat anti-mouse IgG-HRP, absorbance 370 nm/492 nm; the same antibody on Medium coating: 0,2330.
Assay [4] has as its target Short1 (huCDCP1_SH1_ECD aa1-216)_SBP (human) (UniProt Q9H5V8). Put plainly: ELISA, SBP-CDCP1-Short1 captured on a streptavidin plate, antibody 0.1 ug in 50 ul, goat anti-mouse IgG-HRP, absorbance 370 nm/492 nm; the same antibody on Medium coating: 0,0420. Background: An ELISA detects its analyte on a solid surface through an enzyme-linked reagent.
Assay [5] concerns the target Short5 (hu CDCP1_SH5_ECD (aa 1-361)_SBP) (human) (UniProt Q9H5V8). Put plainly: ELISA, SBP-CDCP1-Short5 captured on a streptavidin plate, antibody 0.1 ug in 50 ul, goat anti-mouse IgG-HRP, absorbance 370 nm/492 nm; the same antibody on Medium coating: 0,0420.

B1: Mab CDCP1-015 (antibody, V domains shown)
VH: QVHLKQSGPGLVQPSQSLSITCTVSGFSLTNFGLHWVRQSPGKGLEWLGVIWSGGVTDYNAAFISRLSISKDNSKSQVFFKMNSLQPNDTAIYYCARNYDHDYSMDYWGQGISVSVSS
VL: DVVLTQTPLSLPVIIGDQASISCKSTKSLLNSAGFTYLGWYLQKPGQSPQLLIYLVSNRFSGVPDRFSGSGSGTDFTLKISRVEAEDLGVYFCFQSSYLPLTFGSGTKLEIK
notes: also called CDCP1-0015; Murine CDCP1-015
Take B1: in assay [1], the Kd came out at 0.47 nM, the koff was determined as 0.00022 s⁻¹ and the kon was 460000 M⁻¹ s⁻¹. In assay [2], this molecule yielded an Absorption of 1.3. In addition, the Absorption in assay [3] turned out to be 1.49.

B2: CUB4 antibody (Deposition No. DSM ACC2551), murine (antibody, V domains shown)
VH: EVQLVESGGDLVKPGGSLKLSCAASGFTFNSYGMSWVRQTPDKRLEWVATISSGGSYTYYPDSVKGRFTISRDNAKNTLYLQMSSLKSEDTAMYYCARHPDYDGVWFAYWGQGTLVTVSA
VL: QIVLTQSPAIMSASPGEKVTMTCSVSSSVFYVHWYQQKSGTSPKRWIYDTSKLASGVPARFSGSGSGTSYSLTISSMEAEDAATYYCQQWNSNPPTFGGGTKLEIK
notes: Deposited murine monoclonal antibody; also called Mab CUB4; murine CUB4
In assay [1], B2 showed a dissociation constant (Kd) of 0.52 nM, a koff of 0.00052 s⁻¹ and a kon of 990000 M⁻¹ s⁻¹. The Absorption in assay [4] was 0.787. Further, the Absorption in assay [5] was found to be 1.04.

The Kd is the constant that tells how readily two partners part at equilibrium. A higher Kd goes with weaker binding. In general, koff refers to the first-order rate constant of dissociation. By kon is commonly meant a measure of how fast the partners come together.
